# Experimental data taken from patent publication US20150344570A1 (published 2015).
# T1: FcγRIIa R (human, UniProt P12318 34-217)
# T1 construct: extracellular domain; also called FcgRIIa R type; 2aR
# T1 sequence (looked up): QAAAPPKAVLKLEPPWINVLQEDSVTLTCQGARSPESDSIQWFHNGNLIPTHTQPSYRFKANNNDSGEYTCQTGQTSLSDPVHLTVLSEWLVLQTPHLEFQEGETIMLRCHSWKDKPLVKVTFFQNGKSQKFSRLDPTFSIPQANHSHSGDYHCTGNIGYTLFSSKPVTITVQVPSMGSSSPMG
# B1: GpH7-A5/GpH7-B3 variant H268_20W/GpL16-k0 (antibody, human IgG1, kappa)
# heavy 1: not shown
# heavy 2: not shown
# light: DIVMTQSPLSLPVTPGEPASISCQASESLVHSNRNTYLHWYLQKPGQSPQLLIYKVSNRFSGVPDRFSGSGSGTDFTLKISRVEAEDVGVYYCSQNTHVPPTFGQGTKVEIERTVAAPSVFIFPPSDEQLKSGTASVVCLLNNFYPREAKVQWKVDNALQSGNSQESVTEQDSKDSTYSLSSTLTLSKADYEKHKVYACEVTHQGLSSPVTKSFNRGEC
# notes: also called He Ab H268_20W
# B2: GpH7-A5/GpH7-B3 variant P238_06M/GpL16-k0 (antibody, human IgG1, kappa)
# heavy 1: not shown
# heavy 2: not shown
# light: B1 light
# notes: also called He Ab P238_06M
# B3: GpH7-A5/GpH7-B3 variant I332_14T/GpL16-k0 (antibody, human IgG1, kappa)
# heavy 1: not shown
# heavy 2: not shown
# light: B1 light
# notes: also called He Ab I332_14T
# B4: GpH7-A5/GpH7-B3 variant L234_09D/GpL16-k0 (antibody, human IgG1, kappa)
# heavy 1: not shown
# heavy 2: not shown
# light: B1 light
# notes: also called He Ab L234_09D
# B5: GpH7-A5/GpH7-B3 variant L234_20W/GpL16-k0 (antibody, human IgG1, kappa)
# heavy 1: not shown
# heavy 2: not shown
# light: B1 light
# notes: also called He Ab L234_20W
# B6: GpH7-A5/GpH7-B3 variant L235_20W/GpL16-k0 (antibody, human IgG1, kappa)
# heavy 1: not shown
# heavy 2: not shown
# light: B1 light
# notes: also called He Ab L235_20W
# B7: GpH7-A5/GpH7-B3 variant N325_15Y/GpL16-k0 (antibody, human IgG1, kappa)
# heavy 1: not shown
# heavy 2: not shown
# light: B1 light
# notes: also called He Ab N325_15Y
# B8: GpH7-A5/GpH7-B3 variant L235_09D/GpL16-k0 (antibody, human IgG1, kappa)
# heavy 1: not shown
# heavy 2: not shown
# light: B1 light
# notes: also called He Ab L235_09D
# B9: GpH7-A5/GpH7-B3 variant N325_08L/GpL16-k0 (antibody, human IgG1, kappa)
# heavy 1: not shown
# heavy 2: not shown
# light: B1 light
# notes: also called He Ab N325_08L
# B10: GpH7-A5/GpH7-B3 variant I336_06M/GpL16-k0 (antibody, human IgG1, kappa)
# heavy 1: not shown
# heavy 2: not shown
# light: B1 light
# notes: also called He Ab I336_06M
# B11: GpH7-A5/GpH7-B3 variant P238_09D/GpL16-k0 (antibody, human IgG1, kappa)
# heavy 1: not shown
# heavy 2: not shown
# light: B1 light
# notes: also called He Ab P238_09D
# B12: GpH7-A5/GpH7-B3 variant I332_06M/GpL16-k0 (antibody, human IgG1, kappa)
# heavy 1: not shown
# heavy 2: not shown
# light: B1 light
# notes: also called He Ab I332_06M
# B13: GpH7-A5/GpH7-B3 variant P238_19Q/GpL16-k0 (antibody, human IgG1, kappa)
# heavy 1: not shown
# heavy 2: not shown
# light: B1 light
# notes: also called He Ab P238_19Q
# B14: GpH7-A5/GpH7-B3 variant P238_20W/GpL16-k0 (antibody, human IgG1, kappa)
# heavy 1: not shown
# heavy 2: not shown
# light: B1 light
# notes: also called He Ab P238_20W
# B15: GpH7-A5/GpH7-B3 variant N325_07I/GpL16-k0 (antibody, human IgG1, kappa)
# heavy 1: not shown
# heavy 2: not shown
# light: B1 light
# notes: also called He Ab N325_07I
# B16: GpH7-A5/GpH7-B3 variant K334_04F/GpL16-k0 (antibody, human IgG1, kappa)
# heavy 1: not shown
# heavy 2: not shown
# light: B1 light
# notes: also called He Ab K334_04F
# B17: GpH7-A5/GpH7-B3 variant K334_08L/GpL16-k0 (antibody, human IgG1, kappa)
# heavy 1: not shown
# heavy 2: not shown
# light: B1 light
# notes: also called He Ab K334_08L
# B18: GpH7-A5/GpH7-B3 variant K326_20W/GpL16-k0 (antibody, human IgG1, kappa)
# heavy 1: not shown
# heavy 2: not shown
# light: B1 light
# notes: also called He Ab K326_20W
# B19: GpH7-A5/GpH7-B3 variant K334_02A/GpL16-k0 (antibody, human IgG1, kappa)
# heavy 1: not shown
# heavy 2: not shown
# light: B1 light
# notes: also called He Ab K334_02A
# B20: GpH7-A5/GpH7-B3 variant L234_10E/GpL16-k0 (antibody, human IgG1, kappa)
# heavy 1: not shown
# heavy 2: not shown
# light: B1 light
# notes: also called He Ab L234_10E
# B21: GpH7-A5/GpH7-B3 variant K334_12R/GpL16-k0 (antibody, human IgG1, kappa)
# heavy 1: not shown
# heavy 2: not shown
# light: B1 light
# notes: also called He Ab K334_12R
# B22: GpH7-A5/GpH7-B3 variant P238_10E/GpL16-k0 (antibody, human IgG1, kappa)
# heavy 1: not shown
# heavy 2: not shown
# light: B1 light
# notes: also called He Ab P238_10E
# B23: GpH7-A5/GpH7-B3 variant L328_09D/GpL16-k0 (antibody, human IgG1, kappa)
# heavy 1: not shown
# heavy 2: not shown
# light: B1 light
# notes: also called He Ab L328_09D
# B24: GpH7-A5/GpH7-B3 variant L328_02A/GpL16-k0 (antibody, human IgG1, kappa)
# heavy 1: not shown
# heavy 2: not shown
# light: B1 light
# notes: also called He Ab L328_02A
# B25: GpH7-A5/GpH7-B3 variant L235_04F/GpL16-k0 (antibody, human IgG1, kappa)
# heavy 1: not shown
# heavy 2: not shown
# light: B1 light
# notes: also called He Ab L235_04F
# B26: GpH7-A5/GpH7-B3 variant P238_16H/GpL16-k0 (antibody, human IgG1, kappa)
# heavy 1: not shown
# heavy 2: not shown
# light: B1 light
# notes: also called He Ab P238_16H
# B27: GpH7-A5/GpH7-B3 variant N325_03V/GpL16-k0 (antibody, human IgG1, kappa)
# heavy 1: not shown
# heavy 2: not shown
# light: B1 light
# notes: also called He Ab N325_03V
# B28: GpH7-A5/GpH7-B3 variant P238_04F/GpL16-k0 (antibody, human IgG1, kappa)
# heavy 1: not shown
# heavy 2: not shown
# light: B1 light
# notes: also called He Ab P238_04F
# B29: GpH7-A5/GpH7-B3 variant L328_14T/GpL16-k0 (antibody, human IgG1, kappa)
# heavy 1: not shown
# heavy 2: not shown
# light: B1 light
# notes: also called He Ab L328_14T
# Biological target: T1, FcγRIIa R
# Test: SPR (Biacore), captured antibody, FcγR as analyte; relative binding activity
row,He/Con_2aR,Binder
1,113 % (GpH7-A5/GpH7-B3/GpL16-k0 = 100),B1
2,139 % (GpH7-A5/GpH7-B3/GpL16-k0 = 100),B2
3,105 % (GpH7-A5/GpH7-B3/GpL16-k0 = 100),B3
4,122 % (GpH7-A5/GpH7-B3/GpL16-k0 = 100),B4
5,108 % (GpH7-A5/GpH7-B3/GpL16-k0 = 100),B5
6,131 % (GpH7-A5/GpH7-B3/GpL16-k0 = 100),B6
7,101 % (GpH7-A5/GpH7-B3/GpL16-k0 = 100),B7
8,101 % (GpH7-A5/GpH7-B3/GpL16-k0 = 100),B8
9,144 % (GpH7-A5/GpH7-B3/GpL16-k0 = 100),B9
10,106 % (GpH7-A5/GpH7-B3/GpL16-k0 = 100),B10
11,148 % (GpH7-A5/GpH7-B3/GpL16-k0 = 100),B11
12,109 % (GpH7-A5/GpH7-B3/GpL16-k0 = 100),B12
13,104 % (GpH7-A5/GpH7-B3/GpL16-k0 = 100),B13
14,117 % (GpH7-A5/GpH7-B3/GpL16-k0 = 100),B14
15,133 % (GpH7-A5/GpH7-B3/GpL16-k0 = 100),B15
16,110 % (GpH7-A5/GpH7-B3/GpL16-k0 = 100),B16
17,106 % (GpH7-A5/GpH7-B3/GpL16-k0 = 100),B17
18,131 % (GpH7-A5/GpH7-B3/GpL16-k0 = 100),B18
19,105 % (GpH7-A5/GpH7-B3/GpL16-k0 = 100),B19
20,112 % (GpH7-A5/GpH7-B3/GpL16-k0 = 100),B20
21,111 % (GpH7-A5/GpH7-B3/GpL16-k0 = 100),B21
22,151 % (GpH7-A5/GpH7-B3/GpL16-k0 = 100),B22
23,119 % (GpH7-A5/GpH7-B3/GpL16-k0 = 100),B23
24,117 % (GpH7-A5/GpH7-B3/GpL16-k0 = 100),B24
25,114 % (GpH7-A5/GpH7-B3/GpL16-k0 = 100),B25
26,122 % (GpH7-A5/GpH7-B3/GpL16-k0 = 100),B26
27,108 % (GpH7-A5/GpH7-B3/GpL16-k0 = 100),B27
28,174 % (GpH7-A5/GpH7-B3/GpL16-k0 = 100),B28
29,119 % (GpH7-A5/GpH7-B3/GpL16-k0 = 100),B29
